Data published in paper PMC5557850.

Assays:
[1] = target: FapF coiled-coil peptide D3–Q40 (Pseudomonas sp. UK4); experiment: SEC-MALS; Superdex 200 HR 10/30 column coupled to multiple laser light scattering; isolated coiled-coil peptide
[2] = target: full-length FapF (FapF 1–406) (Pseudomonas sp. UK4)
[3] = target: full-length FapF (FapF 1–406) (Pseudomonas sp. UK4); experiment: native MS; 0.5 M ammonium acetate pH 7.6 with 0.5% C8E4; nano-electrospray, modified Q-Exactive

Substance | stoichiometry N [1] | single-channel current recording in planar DPhPC bilayers: voltage-induced gating at an applied potential of −250 mV [2] [steps] | stoichiometry N [3]
FapF coiled-coil peptide D3–Q40 | 3 |  | 
full-length FapF (FapF 1–406) (natural protein) |  | 3 | 3
